Test results: patent US20200199241A1 (Chugai, published 2020)

T1: human FcγRIIa(R) (human, UniProt P12318 36-217)
T1 construct: also called hFcgRIIa(R); FcγRIIa type R
T1 chain: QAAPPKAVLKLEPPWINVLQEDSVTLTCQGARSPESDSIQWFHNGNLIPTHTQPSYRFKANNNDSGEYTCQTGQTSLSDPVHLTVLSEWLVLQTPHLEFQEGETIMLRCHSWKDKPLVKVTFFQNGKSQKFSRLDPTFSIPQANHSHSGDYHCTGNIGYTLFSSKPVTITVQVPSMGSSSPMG

T2: human FcγRIIa(H) (human, UniProt P12318 36-217)
T2 construct: also called hFcgRIIa(H); FcγRIIa type H
T2 sequence: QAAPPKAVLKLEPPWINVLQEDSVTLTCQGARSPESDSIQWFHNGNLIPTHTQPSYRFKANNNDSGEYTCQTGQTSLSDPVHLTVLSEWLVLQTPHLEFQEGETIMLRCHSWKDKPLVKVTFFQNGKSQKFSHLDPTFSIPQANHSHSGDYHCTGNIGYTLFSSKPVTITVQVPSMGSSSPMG

T3: human FcγRIIb (human, UniProt P31994 43-217, limits assumed)
T3 construct: also called hFcgRIIb; FcγIIB
T3 sequence: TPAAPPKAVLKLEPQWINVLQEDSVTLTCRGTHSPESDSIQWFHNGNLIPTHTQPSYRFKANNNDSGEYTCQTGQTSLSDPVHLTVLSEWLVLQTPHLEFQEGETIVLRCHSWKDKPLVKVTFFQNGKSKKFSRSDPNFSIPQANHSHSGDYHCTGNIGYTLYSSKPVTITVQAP

T4: FcγRIIa type R (human, UniProt P12318 36-217)
T4 construct: SPR analyte; also called FcγRIIaR; FcγRIIa(R)
T4 chain: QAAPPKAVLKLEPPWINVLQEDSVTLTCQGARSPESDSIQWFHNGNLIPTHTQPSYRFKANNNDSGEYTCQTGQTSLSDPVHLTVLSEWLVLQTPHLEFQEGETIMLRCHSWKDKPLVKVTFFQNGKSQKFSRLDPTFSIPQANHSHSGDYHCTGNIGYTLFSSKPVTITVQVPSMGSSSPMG

T5: FcγRIIb (human, UniProt P31994 43-217, limits assumed)
T5 construct: SPR analyte; also called FcγIIB; CD32
T5 sequence: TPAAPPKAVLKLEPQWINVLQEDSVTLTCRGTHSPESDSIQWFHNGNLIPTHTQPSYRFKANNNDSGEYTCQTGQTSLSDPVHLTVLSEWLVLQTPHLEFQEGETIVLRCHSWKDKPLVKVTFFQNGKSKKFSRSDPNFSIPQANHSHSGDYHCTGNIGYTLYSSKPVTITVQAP

T6: FcγRIIa type H (human, UniProt P12318 36-217)
T6 construct: SPR analyte; also called FcγRIIaH
T6 sequence: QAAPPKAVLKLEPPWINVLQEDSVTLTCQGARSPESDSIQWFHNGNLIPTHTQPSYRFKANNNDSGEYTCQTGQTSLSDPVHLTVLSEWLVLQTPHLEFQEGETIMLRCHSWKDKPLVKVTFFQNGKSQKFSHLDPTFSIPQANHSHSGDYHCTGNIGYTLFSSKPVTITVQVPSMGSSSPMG


Tests used:
human FcγRIa = biological target: T7, human FcγRIa (human, UniProt P12314 16-292, limits assumed); experiment: SPR, antibody captured by Protein L, human FcγR as analyte, pH 7.4, 25 C;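 note: biacore T100 or T200 with Protein L amine-coupled on a CM4 chip, FcγRs diluted in ACES saline with polysorbate 20, buffer-only injection as blank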
T7 construct: also called hFcgRIa; hFcgRI

human FcγRIIa(R) = biological target: T1, human FcγRIIa(R); experiment: as above
human FcγRIIa(H) = biological target: T2, human FcγRIIa(H); experiment: as above
human FcγRIIIa(V) = biological target: T8, human FcγRIIIa(V) (human, UniProt P08637 17-208, limits assumed); experiment: as above
T8 construct: also called hFcgRIIIa(V); allotype V158

human FcγRIIb = biological target: T3, human FcγRIIb; experiment: as above
FcγRIIa type R [1] = biological target: T4, FcγRIIa type R; experiment: ratio of SPR KDs; stronger receptor here FcγRIIaR; reference IL6R-B3/IL6R-L (FcγRIIaH)
Text: (§1) Furthermore, KD(IIaR)/KD(IIb) and KD(IIaH)/KD(IIb) in the table respectively represent the value obtained by dividing the KD value of each variant for FcγRIIaR by the KD value of each variant for FcγRIIb, and the value obtained by dividing the KD value of each variant for FcγRIIaH by the KD value of each variant for FcγRIIb. KD(IIb) of the parent polypeptide/KD(IIb) of the altered polypeptide refers to the value obtained by dividing the KD value of the parent polypeptide for FcγRIIb by the KD value of each variant for FcγRIIb.

FcγRIIb [2] = biological target: T5, FcγRIIb; experiment: SPR (Biacore), antibody captured, FcγR analyte
FcγRIIa type R [3] = biological target: T4, FcγRIIa type R; experiment: SPR (Biacore), antibody captured, FcγR analyte
FcγRIIIa type V = biological target: T9, FcγRIIIa type V (human, UniProt P08637 17-208, limits assumed); experiment: SPR (Biacore), antibody captured, FcγR analyte
T9 construct: SPR analyte; allotype V158 was used here; also called FcγRIIIaV; FcγRIIIa(V)

FcγRIIa type H = biological target: T6, FcγRIIa type H; experiment: SPR (Biacore), antibody captured, FcγR analyte
FcγRIa = biological target: T10, FcγRIa (human, UniProt P12314 16-292, limits assumed); experiment: SPR (Biacore), antibody captured, FcγR analyte
T10 construct: SPR analyte; also called CD64

FcγRIIb [4] = biological target: T5, FcγRIIb; experiment: ratio of SPR KDs: KD for FcγRIIaR over KD for FcγRIIb
Text: (§2) Furthermore, KD(IIaR)/KD(IIb) and KD(IIaH)/KD(IIb) in the table respectively represent the value obtained by dividing the KD value of each variant for FcγRIIaR by the KD value of each variant for FcγRIIb, and the value obtained by dividing the KD value of each variant for FcγRIIaH by the KD value of each variant for FcγRIIb.

FcγRIIb [5] = biological target: T5, FcγRIIb; experiment: ratio of SPR KDs; reference IL6R-B3/IL6R-L
Text: as §1

FcγRIIb [6] = biological target: T5, FcγRIIb; experiment: ratio of SPR KDs: KD for FcγRIIaH over KD for FcγRIIb
Text: as §2

T8 sequence (P08637 other isoform, or with tags, fused parts or gaps limits assumed): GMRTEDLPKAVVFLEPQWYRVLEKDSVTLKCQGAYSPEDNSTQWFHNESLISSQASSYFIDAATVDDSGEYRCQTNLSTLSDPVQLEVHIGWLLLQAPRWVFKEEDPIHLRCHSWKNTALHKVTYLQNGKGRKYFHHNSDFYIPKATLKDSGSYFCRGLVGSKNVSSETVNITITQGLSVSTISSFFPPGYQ
T7 sequence (P12314 16-292 limits assumed): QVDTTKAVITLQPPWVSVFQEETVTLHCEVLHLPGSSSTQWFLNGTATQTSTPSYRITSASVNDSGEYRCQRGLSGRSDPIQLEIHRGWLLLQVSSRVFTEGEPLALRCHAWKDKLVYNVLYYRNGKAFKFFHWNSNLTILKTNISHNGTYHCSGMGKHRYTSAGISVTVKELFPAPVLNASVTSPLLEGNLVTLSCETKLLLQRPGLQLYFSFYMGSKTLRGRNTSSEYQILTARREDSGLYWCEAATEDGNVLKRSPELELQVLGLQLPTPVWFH
T9 sequence (P08637 other isoform, or with tags, fused parts or gaps limits assumed): as the sequence (P08637 other isoform, or with tags, fused parts or gaps limits assumed) above
T10 sequence (P12314 16-292 limits assumed): as the sequence (P12314 16-292 limits assumed) above

Binder	BINDING AMOUNT (RU) (human FcγRIa)	BINDING AMOUNT (RU) (human FcγRIIa(R))	BINDING AMOUNT (RU) (human FcγRIIa(H))	BINDING AMOUNT (RU) (human FcγRIIIa(V))	BINDING AMOUNT (RU) (human FcγRIIb)	KD of the stronger of FcγRIIaR/FcγRIIaH binding of the variant / that of the parent polypeptide (FcγRIIa type R [1])	Kd (FcγRIIb [2])	Kd (FcγRIIa type R [3])	Kd (FcγRIIIa type V)	Kd (FcγRIIa type H)	Kd (FcγRIa)	KD(IIaR)/KD(IIb) (FcγRIIb [4])	KD(IIb) of the parent polypeptide/KD(IIb) of altered polypeptide (FcγRIIb [5])	KD(IIaH)/KD(IIb) (FcγRIIb [6])
antibody with VH3-IgG1-F938 heavy chain and L(WT)-CK light chain (antibody, L235K/S239K on VH3-IgG1-F890; copies: 2 + 2) heavy: QVQLQESGPGLVKPSETLSLTCAVSGHSISHDHAWSWVRQPPGEGLEWIGFISYSGITNYNPSLQGRVTISRDNSKNTLYLQMNSLRAEDTAVYYCARSLARTTAMDYWGEGTLVTVSSASTKGPSVFPLAPSSKSTSGGTAALGCLVKDYFPEPVTVSWNSGALTSGVHTFPAVLQSSGLYSLSSVVTVPSSSLGTQTYICNVNHKPSNTKVDKKVEPKSCDKTHTCPPCPAPELKGGPKVFLFPPKPKDTLYISRTPEVTCVVVDVSHEDPEVKFNWYVDGVEVHNAKTKPREEQYNSTYRVVSVLTVLHQDWLNGKEYKCKVSNKALPAPIEKTISKAKGQPREPQVYTLPPSRDELTKNQVSLTCLVKGFYPSDIAVEWESNGQPENNYKTTPPVLDSDGSFFLYSKLTVDKSRWQQGNVFSCSVMHEALHYHVTQKSLSLSP light: not shown	-0.49 RU	-0.12 RU	-0.05 RU	1.2 RU	-0.14 RU									
IL6R-BP082/IL6R-L (antibody, human IgG1) heavy: QVQLQESGPGLVKPSETLSLTCAVSGHSISHDHAWSWVRQPPGEGLEWIGFISYSGITNYNPSLQGRVTISRDNSKNTLYLQMNSLRAEDTAVYYCARSLARTTAMDYWGEGTLVTVSSASTKGPSVFPLAPSSKSTSGGTAALGCLVKDYFPEPVTVSWNSGALTSGVHTFPAVLQSSGLYSLSSVVTVPSSSLGTQTYICNVNHKPSNTKVDKKVEPKSCDKTHTCPPCPAPDLLGGDSVFLFPPKPKDTLMISRTPEVTCVVVDVSHEDPEVKFNWYVDGVEVHNAKTKPREEQYNSTYRVVSVLTVLHQDWLNGKEYKCKVSNKALPKPIEKTISKAKGQPREPQVYTLPPSRDELTKNQVSLTCLVKGFYPSDIAVEWESNGQPENNYKTTPPVLDSDGSFFLYSKLTVDKSRWQQGNVFSCSVMHEALHNHYTQESLSLSP light: DIQMTQSPSSLSASVGDRVTITCRASQDISSYLNWYQQKPGKAPKLLIYYTSRLHSGVPSRFSGSGSGTDFTFTISSLQPEDIATYYCQQGNTLPYTFGQGTKVEIK						15.8	0.54 µM	12 µM	81 µM	37 µM	0.018 µM	22.8	5.8	69
antibody with VH3-IgG1-F1315 heavy chain and L(WT)-CK light chain (antibody, G237K/S239K on VH3-IgG1-F890; copies: 2 + 2) heavy: QVQLQESGPGLVKPSETLSLTCAVSGHSISHDHAWSWVRQPPGEGLEWIGFISYSGITNYNPSLQGRVTISRDNSKNTLYLQMNSLRAEDTAVYYCARSLARTTAMDYWGEGTLVTVSSASTKGPSVFPLAPSSKSTSGGTAALGCLVKDYFPEPVTVSWNSGALTSGVHTFPAVLQSSGLYSLSSVVTVPSSSLGTQTYICNVNHKPSNTKVDKKVEPKSCDKTHTCPPCPAPELLGKPKVFLFPPKPKDTLYISRTPEVTCVVVDVSHEDPEVKFNWYVDGVEVHNAKTKPREEQYNSTYRVVSVLTVLHQDWLNGKEYKCKVSNKALPAPIEKTISKAKGQPREPQVYTLPPSRDELTKNQVSLTCLVKGFYPSDIAVEWESNGQPENNYKTTPPVLDSDGSFFLYSKLTVDKSRWQQGNVFSCSVMHEALHYHVTQKSLSLSP light: not shown	-2.71 RU	-1.14 RU	-1.37 RU	-2.69 RU	0.63 RU									
